B1: TPR t1 (parent)
chain: GACCAAUCUGCCCUCAGAGCUCGAGAACAUCUUCGGAUGCAGAGGAGGCAGGCUUCGGUGGCGCGAUAGCGCCAACGUCCUCAACCUCCAAUGCAUCCCACCACAUGAUGAUGCCUGAAGAGCCUUGGUUUUUUG

Variants of: B1
Test: polymerase ribozyme fitness, log enrichment relative to wild type (log ratio); higher = more active; in vitro selection for triplet polymerase activity
In short: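 Only genotypes with ≥10 input reads and ≥1 read per output were kept after Illumina sequencing of input and output libraries. These libraries were PCR-built, transcribed mutants of each subunit of a heterodimeric triplet polymerase ribozyme, each put through one triplicate in vitro selection round with frozen incubation at −7 °C, gel excision of extended constructs, streptavidin-bead capture and RT-PCR. Fitness is a logarithmic ratio of genotype enrichment to wild-type enrichment, from inverse-variance-weighted replicate averages, with the logarithm in base 2.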

Compared with GACCAAUCUGCCCUCAGAGCUCGAGAACAUCUUCGGAUGCAGAGGAGACAGGCUUCGGUGGCGCGAUAGCGCCAACGUCCUCAACCUCCAAUGCAUCCCACCACAUGAUGAUGCCUUAAGAGCCUUGGUUUUUUG [G48A G117U], GACCAAUCUGCCCUCAGAGCUCGAGAACAUCUUCGGAUGCAGAGGAGCCAGGCUUCGGUGGCGCGAUAGCGCCAACGUCCUCGACCUCCAAUGCAUCCCACCACAUGAUGAUGCCUGAAGAUCCUUGGUUUUUUG [G48C A83G G122U] is higher in “polymerase ribozyme fitness (log ratio)” value: -2.2 for the first, -1.4 for the second.

GACCAAUCUGCCCUCAGAGCUCGAGAACAUCUUCGGAUGCAGAGGAGCCAGGCUUCGGUGGCGCGAUAGCGCCAACGUCCUCAACCUCCAAUGCAUCCCACCACAUGAUGAUGCCUGAAGAGCCUUGGUUUUUUG [G48C] and GACCAAUCUGCCCUCAGAGCUCGAGAACAUCUUCGGAUGCAGAGGAGUCAGGCUUCGGUGGCGCGAUAGCGCCAACGUCCUCAACCUCCAAUGCAUCCCACCACAUGAUGAUGCCUGAAGAGCCUUGGUUUUUUG [G48U] are within 0.2 log units of each other in “polymerase ribozyme fitness (log ratio)” value: -0.943 for the first, -0.903 for the second.

Compared with GACCAAUCUGCCCUCAGAGCUCGAGAACAUCUUCGGAUGCAGAGGAGCCAGGCUUCGGUGGCGCGAUAGUGCCAACGUCCUCAACCUCCAAUGCAUCCCACCACAUGAUGAUGCCUGAAGAGCCUUGGUUUUUUG [G48C C70U], GACCAAUCUGCCCUCAGAGCUCGAGAACAUCUUCGGAUGCAGAGGAGCCAGACUUCGGUGGCGCGAUAGCGCCAACGUCCUCAACCUCCAAUGCAUCCCACAACAUGAUGCUGCCUGAUGAGCCUUGGUUUUUUG [G48C G52A C102A A111C A119U] is lower in “polymerase ribozyme fitness (log ratio)” value: -0.829 for the first, -4.33 for the second.

Compared with GACCAAUCUGCCCUCAGAGCUCGAGAACAUCUUCGGAUGCAGAGGAGACAGGCGUCGGUGGCGCGAUAGCGCCAACGUCCUCAAUCUCCAAUGCAUCCCACCACAUGAUGAUGCCUGAAGAGCCUUGGUUUUUUG [G48A U54G C85U], GACCAAUCUGCCCUCAGAGCUCGAGAACAUCUUCGGAUGCAGAGGAGCCAGGCUUCGGUGGCGCGAUAGCGCCAACGACCUCAACCUCCAAUGCAUCCCACCACAUGAUGAUGCCUGAAGAGCCUUGGUUUUUUG [G48C U78A] is higher in “polymerase ribozyme fitness (log ratio)” value: -0.681 for the first, -0.274 for the second.

GACCAAUCUGCCCUCAGAGCUCGAGAACAUCUUCGGAUGCAGAGGAGACAGGCAUCGGUGGCGCGAUAGCGCCAACGUCCUCAUCCUCCAAUGCAUCCCACCACAUGAUGAUGCCUGAAGAGCCUUGGAUUUUUG [G48A U54A A84U U129A] and GACCAAUCUGCCCUCAGAGCUCGAGAACAUCUUCGGAUGCAGAGGAGCCAGGCUUCGGUGGCGCGAUAGCGCGAACGUCCUCAACCUCCAAUACAUCCCACCACAUGAUGAUGCCUGAAGAGCAUUGGUUUUUUG [G48C C73G G93A C124A] are within 0.2 log units of each other in “polymerase ribozyme fitness (log ratio)” value: -1.42 for the first, -1.39 for the second.

Going from GACCAAUCUGCCCUCAGAGCUCGAGAACAUCUUCGGAUGCAGAGGAGCAAGGCUUUGGUGGCGCGAUAGCGCCAACGUCCUCAACCUCCAAUUCAUCCCACCACAUGAUGAUGCCUGAAGAGCCUUGGUUUUUUG [G48C C49A C56U G93U] to GACCAAUCUGCCCUCAGAGCUCGAGAACAUCUUCGGAUGCAGAGGAGACAGGCUUCGGUGGCGCGAUAGCGCCAACGUCCUCAACCUCCAAUGCAUCCCACCACAUGAUGAUGCCUGAAGACGCUUAGUUUUUUG [G48A G122C C123G G127A], the “polymerase ribozyme fitness (log ratio)” value falls from -1.8 to -2.37.

Compared with GACCAAUCUGCCCUCAGAGCUCGAGAACAUCUUCGGAUGCAGAGGAGCCAGGCUUCGGUGGCGCGAUAGCACCAACGUCCUCAACCUCCAAUGCAUCCCACCACAUGGUGACGCCUUAAGAGCCUUGGUUUUUUG [G48C G71A A108G U112C G117U], GACCAAUCUGCCCUCAGAGCUCGAGAACAUCUUCGGAUGCAGAGGAGCCAGGCUUCGGUGGCGCGAUAGCGCCAACGUCCUCUACCUCCAAUGCAUCCCACCACAUGGUGAUGCCUGAAGAGCCUUGGUUUUUUG [G48C A83U A108G] is higher in “polymerase ribozyme fitness (log ratio)” value: -6.18 for the first, -1.66 for the second.

Going from GACCAAUCUGCCCUCAGAGCUCGAGAACAUCUUCGGAUGCAGAGGAGCCAGGCUUCGGUGGCGCGAUAGCGCCAACGCCCUCAACCUCCAAUGCAUCCCACCACAUGAUGAUGCCUGAACAGCGUUGGUUUUUUG [G48C U78C G120C C124G] to GACCAAUCUGCCCUCAGAGCUCGAGAACAUCUUCGGAUGCAGAGGAGCCAGGCUUCGGUGGCGCGAUAGCGCCAACGUCCUCAACCUCCAAUGCAUCCCACCACAUGAUGAUGCCUGAAGAGCCUUGAUUUUUUG [G48C G128A], the “polymerase ribozyme fitness (log ratio)” value falls from 0.298 to -3.43.

First: GACCAAUCUGCCCUCAGAGCUCGAGAACAUCUUCGGAUGCAGAGGAGCCAGGCUUCGGUGGCGCGAUAGCGGCAACGUCCUCAACCUCCAAUGCAUCCCACCACAUGAUGAUGCCUGAAGAGCCUUGGUUUUUUG [G48C C72G]
Second: GACCAAUCUGCCCUCAGAGCUCGAGAACAUCUUCGGAUGCAGAGGAGCCAGGCUUCGGUGGCGCGAUAUCGCCAACGUCCUCAACCUCCAAUGCAUCCCACCACAUGAUGAUGCCUGAAGAGCCUUGGUUUUUUG [G48C G69U]
The “polymerase ribozyme fitness (log ratio)” value of the first is lower: -0.77 for the first, -0.209 for the second.

GACCAAUCUGCCCUCAGAGCUCGAGAACAUCUUCGGAUGCAGAGGAGCCAGGCUUCGGUGGCGCGAUAGCGCCAACGUCCUCAACCUCCAAUGCGUCCCACCACAUGAUGAUGCCUGAAGAGCCUUGGCUUUUUG [G48C A95G U129C] and GACCAAUCUGCCCUCAGAGCUCGAGAACAUCUUCGGAUGCAGAGGAGACAGGCUUCGGUGGCGCGAUAGCGCCAACGUCCUCAACCUCCAAUGCAUCCCACCACAUGAUGAUACCUGAAGAGCCUUGGUUUUUUG [G48A G113A] are within 0.2 log units of each other in “polymerase ribozyme fitness (log ratio)” value: -1.6 for the first, -1.61 for the second.

In the case of GACCAAUCUGCCCUCAGAGCUCGAGAACAUCUUCGGAUGCAGAGGAGCCAGGCUGCGGUGGAGCGAUAGCGCCAACGUUCUCACGCUCCAAUUCAUCCCACCACAUGAUGAUGCCUGAAGAGCAUUGGUUUUUUG [G48C U55G C62A C79U A84C C85G G93U C124A], the “polymerase ribozyme fitness (log ratio)” value is reported as -0.918.
